# Experimental data reported in patent US20140274782A1, “AFFINITY REAGENTS AND METHODS FOR DETECTION, PURIFICATION, AND PROTEOMIC ANALYSIS OF METHYLATED PROTEINS” (The Board of Trustees of the Leland Stanford Junior …, priority 2013, published 2014).
# T1: G9a and GLP (Homo sapiens, UniProt Q96KQ7+Q9H9B1)
# T1 sequence (Q96KQ7 2-1210 limits assumed): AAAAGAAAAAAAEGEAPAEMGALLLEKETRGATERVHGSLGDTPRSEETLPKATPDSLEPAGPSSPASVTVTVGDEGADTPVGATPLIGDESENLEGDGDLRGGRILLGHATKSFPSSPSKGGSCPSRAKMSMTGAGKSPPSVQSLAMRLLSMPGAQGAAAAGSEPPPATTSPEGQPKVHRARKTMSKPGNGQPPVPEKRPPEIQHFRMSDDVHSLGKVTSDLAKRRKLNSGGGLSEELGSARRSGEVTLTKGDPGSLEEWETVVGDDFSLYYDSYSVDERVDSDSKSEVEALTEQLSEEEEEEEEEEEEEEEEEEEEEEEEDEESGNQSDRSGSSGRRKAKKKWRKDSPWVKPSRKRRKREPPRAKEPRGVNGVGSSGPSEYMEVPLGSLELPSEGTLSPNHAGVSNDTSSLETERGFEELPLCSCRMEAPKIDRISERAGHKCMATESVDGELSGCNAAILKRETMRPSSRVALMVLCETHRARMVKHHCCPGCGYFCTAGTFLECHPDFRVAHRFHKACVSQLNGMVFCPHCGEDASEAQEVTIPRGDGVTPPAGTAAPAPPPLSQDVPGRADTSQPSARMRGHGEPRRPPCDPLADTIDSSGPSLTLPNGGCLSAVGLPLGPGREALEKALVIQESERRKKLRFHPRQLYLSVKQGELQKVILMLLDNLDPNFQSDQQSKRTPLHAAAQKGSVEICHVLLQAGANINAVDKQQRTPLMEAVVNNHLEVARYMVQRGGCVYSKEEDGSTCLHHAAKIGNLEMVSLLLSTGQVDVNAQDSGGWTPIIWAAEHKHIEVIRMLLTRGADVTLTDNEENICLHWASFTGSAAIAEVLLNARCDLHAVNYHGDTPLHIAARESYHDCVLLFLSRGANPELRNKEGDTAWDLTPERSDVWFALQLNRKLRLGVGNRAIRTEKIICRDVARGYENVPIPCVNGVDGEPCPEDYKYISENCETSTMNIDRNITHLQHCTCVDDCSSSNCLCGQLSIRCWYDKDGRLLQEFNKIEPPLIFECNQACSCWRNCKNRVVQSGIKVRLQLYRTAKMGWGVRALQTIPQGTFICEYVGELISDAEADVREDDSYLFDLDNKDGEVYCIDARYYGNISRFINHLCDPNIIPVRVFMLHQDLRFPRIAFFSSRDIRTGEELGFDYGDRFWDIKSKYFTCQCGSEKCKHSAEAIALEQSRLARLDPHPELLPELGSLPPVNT
# T1 sequence (Q9H9B1 2-1298 limits assumed): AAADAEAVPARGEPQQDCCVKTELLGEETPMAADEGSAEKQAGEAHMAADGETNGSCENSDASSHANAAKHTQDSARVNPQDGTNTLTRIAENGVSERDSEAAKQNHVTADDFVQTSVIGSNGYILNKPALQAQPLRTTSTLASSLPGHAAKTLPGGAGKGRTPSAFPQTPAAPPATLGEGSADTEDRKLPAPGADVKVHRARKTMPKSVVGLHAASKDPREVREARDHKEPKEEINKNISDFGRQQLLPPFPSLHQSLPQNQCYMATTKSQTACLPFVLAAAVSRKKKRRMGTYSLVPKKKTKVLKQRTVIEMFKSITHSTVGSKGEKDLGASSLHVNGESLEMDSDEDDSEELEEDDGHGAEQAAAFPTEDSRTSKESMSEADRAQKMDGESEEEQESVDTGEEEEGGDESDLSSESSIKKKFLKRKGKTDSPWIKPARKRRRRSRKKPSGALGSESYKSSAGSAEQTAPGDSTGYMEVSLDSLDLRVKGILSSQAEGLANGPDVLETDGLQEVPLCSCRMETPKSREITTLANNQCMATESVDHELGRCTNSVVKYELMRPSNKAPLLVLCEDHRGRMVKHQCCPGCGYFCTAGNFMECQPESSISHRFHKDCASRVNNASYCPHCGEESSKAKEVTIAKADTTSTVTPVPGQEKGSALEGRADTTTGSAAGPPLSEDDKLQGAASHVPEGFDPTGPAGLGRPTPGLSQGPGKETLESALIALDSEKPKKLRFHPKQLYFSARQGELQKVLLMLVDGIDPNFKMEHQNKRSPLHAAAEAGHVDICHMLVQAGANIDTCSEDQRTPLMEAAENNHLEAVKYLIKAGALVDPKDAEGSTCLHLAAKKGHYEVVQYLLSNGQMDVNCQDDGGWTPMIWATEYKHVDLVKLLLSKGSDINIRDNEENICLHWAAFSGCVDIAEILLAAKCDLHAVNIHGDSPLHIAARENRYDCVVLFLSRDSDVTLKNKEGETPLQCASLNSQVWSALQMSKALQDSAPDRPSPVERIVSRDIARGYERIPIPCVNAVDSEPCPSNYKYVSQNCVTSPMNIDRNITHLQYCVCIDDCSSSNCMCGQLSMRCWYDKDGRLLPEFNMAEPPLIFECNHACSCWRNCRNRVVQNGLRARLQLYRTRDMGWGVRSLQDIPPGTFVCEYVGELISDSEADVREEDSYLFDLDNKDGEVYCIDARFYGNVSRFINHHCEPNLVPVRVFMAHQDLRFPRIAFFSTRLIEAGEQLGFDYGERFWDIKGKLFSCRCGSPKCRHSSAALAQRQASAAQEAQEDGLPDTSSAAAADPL
# Key:
# [1] = test system: 3×MBT domain of L3MBTL1; assay: Triple SILAC pull-down, 3xMBT/3xMBTD355N ratio (cytoplasmic, nuclear and chromatin fractions of 293T cells); type: binding, human; details: SILAC ratio, pull-down 3xMBT vs 3xMBTD355N; for 3xMBT/D355N UNC Heavy: experiment with UNC0638 in heavy SILAC media; for 3xMBT/D355N UNC Light: experiment with UNC0638 in light SILAC media;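 as to all read-outs here: proteins quantified with MaxQuant, requiring at least two unique peptides and quantification in both label directions, normalized to the mean of proteins from a digested loading control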
# [2] = target: T1, G9a and GLP; assay: Triple SILAC pull-down after UNC0638 treatment of 293T cells, DMSO/UNC0638 ratio of protein captured by 3×MBT; type: cell-based; parameters: endogenous in cells; host or cells: HEK 293T; details: for Relative to UNC0638 UNC Heavy / Relative to UNC0638 UNC Light: SILAC ratio DMSO/UNC0638 of protein pulled down with 3xMBT; for Relative to UNC0638 UNC Heavy: UNC0638 in heavy SILAC media; for Relative to UNC0638 UNC Light: UNC0638 in light SILAC media; for Relative to UNC0638 Average: average of UNC Light and UNC Heavy experiments;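 as to all read-outs here: mass spectrometry (Q-Exactive) SILAC quantitation, DMSO/UNC0638 ratio computed after subtracting 3×MBTD355N mutant pull-down background, only proteins with at least twofold 3×MBT over mutant signal considered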
Molecule,Relative to UNC0638 UNC Heavy [2] [log base 2],Relative to UNC0638 UNC Light [2] [log base 2],Relative to UNC0638 Average [2] [log base 2],3xMBT/D355N UNC Heavy [1] [log base 2],3xMBT/D355N UNC Light [1] [log base 2]
"DUT (protein, UniProt P33316 70-252, looked up) Deoxyuridine 5'-triphosphate …: ASTVGAAGWKGELPKAGGSPAPGPETPAISPSKRARPAEVGGMQLRFARLSEHATAPTRGSARAAGYDLYSAYDYTIPPMEKAVVKTDIQIALPSGCYGRVAPRSGLAAKHFIDVGAGVIDEDYRGNVGVVLFNFGKEKFEVKKGDRIAQLICERIFYPEIEEVQALDDTERGSGGFGSTGKN",0.62,0.04,0.33,1.63,2.37
"HNRNPH3 (protein, UniProt P31942 1-346, looked up) Heterogeneous nuclear …: MDWVMKHNGPNDASDGTVRLRGLPFGCSKEEIVQFFQGLEIVPNGITLTMDYQGRSTGEAFVQFASKEIAENALGKHKERIGHRYIEIFRSSRSEIKGFYDPPRRLLGQRPGPYDRPIGGRGGYYGAGRGSMYDRMRRGGDGYDGGYGGFDDYGGYNNYGYGNDGFDDRMRDGRGMGGHGYGGAGDASSGFHGGHFVHMRGLPFRATENDIANFFSPLNPIRVHIDIGADGRATGEADVEFVTHEDAVAAMSKDKNNMQHRYIELFLNSTPGGGSGMGGSGMGGYGRDGMDNQGGYGSVGRMGMGNNYSGGYGTPDGLGGYGRGGGGSGGYYGQGGMSGGGWRGMY",0.28,0.39,0.34,1.94,2.57

# Continued, in another order:
Relative to UNC0638 UNC Heavy [2] [log base 2],Relative to UNC0638 UNC Light [2] [log base 2],Relative to UNC0638 Average [2] [log base 2],Molecule,3xMBT/D355N UNC Heavy [1] [log base 2],3xMBT/D355N UNC Light [1] [log base 2]
−0.08,0.76,0.34,"SRP68 (protein, UniProt Q9UHB9 1-627, looked up) Signal recognition particle …: MAAEKQVPGGGGGGGSGGGGGSGGGGSGGGRGAGGEENKENERPSAGSKANKEFGDSLSLEILQIIKESQQQHGLRHGDFQRYRGYCSRRQRRLRKTLNFKMGNRHKFTGKKVTEELLTDNRYLLLVLMDAERAWSYAMQLKQEANTEPRKRFHLLSRLRKAVKHAEELERLCESNRVDAKTKLEAQAYTAYLSGMLRFEHQEWKAAIEAFNKCKTIYEKLASAFTEEQAVLYNQRVEEISPNIRYCAYNIGDQSAINELMQMRLRSGGTEGLLAEKLEALITQTRAKQAATMSEVEWRGRTVPVKIDKVRIFLLGLADNEAAIVQAESEETKERLFESMLSECRDAIQVVREELKPDQKQRDYILEGEPGKVSNLQYLHSYLTYIKLSTAIKRNENMAKGLQRALLQQQPEDDSKRSPRPQDLIRLYDIILQNLVELLQLPGLEEDKAFQKEIGLKTLVFKAYRCFFIAQSYVLVKKWSEALVLYDRVLKYANEVNSDAGAFKNSLKDLPDVQELITQVRSEKCSLQAAAILDANDAHQTETSSSQVKDNKPLVERFETFCLDPSLVTKQANLVHFPPGFQPIPCKPLFFDLALNHVAFPPLEDKLEQKTKSGLTGYIKGIFGFRS",2.41,3.28
0.54,0.13,0.33,"DBR1 (protein, UniProt Q9UK59 1-544, looked up) Lariat debranching enzyme: MRVAVAGCCHGELDKIYETLALAERRGPGPVDLLLCCGDFQAVRNEADLRCMAVPPKYRHMQTFYRYYSGEKKAPVLTLFIGGNHEASNHLQELPYGGWVAPNIYYLGLAGVVKYRGVRIGGISGIFKSHDYRKGHFECPPYNSSTIRSIYHVRNIEVYKLKQLKQPIDIFLSHDWPRSIYHYGNKKQLLKTKSFFRQEVENNTLGSPAASELLEHLKPTYWFSAHLHVKFAALMQHQAKDKGQTARATKFLALDKCLPHRDFLQILEIEHDPSAPDYLEYDIEWLTILRATDDLINVTGRLWNMPENNGLHARWDYSATEEGMKEVLEKLNHDLKVPCNFSVTAACYDPSKPQTQMQLIHRINPQTTEFCAQLGIIDINVRLQKSKEEHHVCGEYEEQDDVESNDSGEDQSEYNTDTSALSSINPDEIMLDEEEDEDSIVSAHSGMNTPSVEPSDQASEFSASFSDVRILPGSMIVSSDDTVDSTIDREGKPGGTVESGNGEDLTKVPLKRLSDEHEPEQRKKIKRRNQAIYAAVDDDDDDAA",3.11,2.56
